Source: publication PMC6497303, “Molecular understanding of calcium permeation through the open Orai channel” (PLoS Biology, 2019)

Biological target: the molecule itself
Assay: crystal structure; purified dOrai-P288L in NG/NM detergent with POPC:POPE:POPG lipid, sitting drop, 17°C, sodium citrate pH 6.5, PEG400; 4.5 Å; 2 hexamers in each asymmetric unit

B1: Drosophila melanogaster Orai (dOrai) mutant (P288L) channel, amino acids 132 to 341 with C224S, C283T and P288L (domain or fragment, UniProt Q9U6B8 132-341, looked up)
chain: SMSQSGEDLHSPTYLSWRKLQLSRAKLKASSKTSALLSGFAMVAMVEVQLDHDTNVPPGMLIAFAICTTLLVAVHMLALMISTCILPNIETVSNLHSISLVHESPHERLHWYIETAWAFSTLLGLILFLLEIAILCWVKFYDLSPPAAWSATVVLILVMIIFMAFAIHFYRSLVSHKYEVTVSGIRELEMLKEQMEQDHLEHHNNIRNNG
notes: Orai, Drosophila melanogaster, UniProt Q9U6B8, residues 132 to 341 with C224S, C283T and P288L; codons optimised for Homo sapiens; PreScission site between Orai and eGFP; residues of the site may be left after 3C cleavage; also called dOrai-P288L; dOrai-P288L channel; not shown: eGFP, C-terminal, cleaved
In the case of B1, the “stoichiometry N” value is reported as 6.
